The data set concerns Gp49 (Bacillus phage SPO1). Briefly: SPR. The conditions noted are these: EMSA: 20 mM Tris, 50 mM NaCl, pH 7.5, 30 min at 4 C, 2% agarose in 0.5x TBE; SPR: Biacore T100, CM5, 25 C, buffer not stated.

Sequence AUGAAUAGUUAAACAACGUGG [ssRNA] registered a Kd of 1.86 µM.
